Results published in the supplement of paper PMC9732359.
± gives the uncertainty stated by the source.

Experiment: protein stability index of a GFP-peptide fusion (yeast GPS) (PSI 1-4); higher = more stable; sorted into four equal gates, so the index is relative within each strain
How it was run: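 The protein stability index of a peptide was calculated by multiplying its read frequency in each gate by that gate's number and adding the products. The peptides were tiled 17-residue stretches of yeast proteins, fused downstream of GFP on a Cherry-expressing plasmid and carried in yeast as a pooled library. Mid-log cultures in leucine-free medium were sorted into four equal gates by GFP/Cherry ratio, and each gate's plasmids were PCR-amplified and Illumina-sequenced.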

## STKLSRPFDSFGKLLQA [ITC1]
doa10∆
  protein stability index: 2.42 ± 0.054
pdr5∆
  protein stability index: 2.67 ± 0.066
san1∆
  protein stability index: 2.35 ± 0.057
ubr1∆
  protein stability index: 2.03 ± 0.063

## STKSNKAKNPLTHSTPK [RPL8B]
doa10∆
  protein stability index: 2.33 ± 0.069
pdr5∆
  protein stability index: 2.83 ± 0.059
san1∆
  protein stability index: 2.94 ± 0.058
ubr1∆
  protein stability index: 2.73 ± 0.071

## STQELQTRAKLLDNEIR [RPT5]
doa10∆
  protein stability index: 3.2 ± 0.15
pdr5∆
  protein stability index: 3.05 ± 0.085
san1∆
  protein stability index: 3.03 ± 0.083
ubr1∆
  protein stability index: 2.98 ± 0.044

## STQPSFAWSKPSTGSNL [YGR119C/NUP57]
doa10∆
  protein stability index: 2.98 ± 0.054
pdr5∆
  protein stability index: 3.04 ± 0.055
san1∆
  protein stability index: 3.01 ± 0.048
ubr1∆
  protein stability index: 2.98 ± 0.038

## STSVGWKYEDVVAKLED [RPL16B]
doa10∆
  protein stability index: 3.31 ± 0.073
pdr5∆
  protein stability index: 2.28 ± 0.094
san1∆
  protein stability index: 2.48 ± 0.11
ubr1∆
  protein stability index: 3.33 ± 0.075

## STTFADCPVVPADPDIL [RPC40]
doa10∆
  protein stability index: 2.8 ± 0.071
pdr5∆
  protein stability index: 2.87 ± 0.084
san1∆
  protein stability index: 2.41 ± 0.11
ubr1∆
  protein stability index: 2.43 ± 0.094

## STVKVSDLNLTDRQKKL [YLR018C/POM34]
doa10∆
  protein stability index: 2.9 ± 0.063
pdr5∆
  protein stability index: 2.75 ± 0.048
san1∆
  protein stability index: 2.79 ± 0.047
ubr1∆
  protein stability index: 2.76 ± 0.037

## SVFMPLIFIACNDEDKD [ECM29]
doa10∆
  protein stability index: 2.99 ± 0.069
pdr5∆
  protein stability index: 2.93 ± 0.058
san1∆
  protein stability index: 2.09 ± 0.079
ubr1∆
  protein stability index: 2.55 ± 0.04

## SVFYTILRDYGPQEAAN [RPO31]
doa10∆
  protein stability index: 3.42 ± 0.11
pdr5∆
  protein stability index: 3.25 ± 0.094
san1∆
  protein stability index: 3.27 ± 0.071
ubr1∆
  protein stability index: 2.88 ± 0.069

## SVHHARVLITQRHIAVG [RPS9A]
pdr5∆
  protein stability index: 1.31 ± 0.14

## SVLLHHKTMSIVGVLQD [RPT2]
doa10∆
  protein stability index: 1.34 ± 0.074
pdr5∆
  protein stability index: 1.51 ± 0.053
san1∆
  protein stability index: 1.37 ± 0.096
ubr1∆
  protein stability index: 1.57 ± 0.042

## SVLYQLSTSAFMEIVLE [YML031W/NDC1]
doa10∆
  protein stability index: 2.17 ± 0.047
pdr5∆
  protein stability index: 2.07 ± 0.055
san1∆
  protein stability index: 2.07 ± 0.068
ubr1∆
  protein stability index: 2.67 ± 0.058

## SVPLRKGDRALLVKLSK [BRR2]
doa10∆
  protein stability index: 2.46 ± 0.17
pdr5∆
  protein stability index: 3.33 ± 0.18
san1∆
  protein stability index: 3.06 ± 0.094
ubr1∆
  protein stability index: 2.99 ± 0.15

## SVQLPDMAKLKKMMNTS [SWI3]
doa10∆
  protein stability index: 2.14 ± 0.082
pdr5∆
  protein stability index: 1.82 ± 0.092
san1∆
  protein stability index: 1.91 ± 0.11
ubr1∆
  protein stability index: 1.94 ± 0.082

## SVSMLLQYYILEYMNTA [RRI2]
doa10∆
  protein stability index: 2.22 ± 0.079
pdr5∆
  protein stability index: 2.34 ± 0.089
san1∆
  protein stability index: 2.93 ± 0.086
ubr1∆
  protein stability index: 2.19 ± 0.055

## SVVHPGEMVGVLAAQSI [RPO21]
doa10∆
  protein stability index: 1.29 ± 0.13
pdr5∆
  protein stability index: 1.81 ± 0.089
ubr1∆
  protein stability index: 1.26 ± 0.06

## SVVLTLQAFGESESTTN [RPB3]
doa10∆
  protein stability index: 2.42 ± 0.12
pdr5∆
  protein stability index: 2.51 ± 0.088
san1∆
  protein stability index: 1.67 ± 0.11
ubr1∆
  protein stability index: 1.18 ± 0.052

## SVWKPIAAIIGRLNTLV [IRR1]
doa10∆
  protein stability index: 1.68 ± 0.03
pdr5∆
  protein stability index: 1.56 ± 0.026
san1∆
  protein stability index: 2.04 ± 0.058
ubr1∆
  protein stability index: 1.63 ± 0.024

## SVYYHKGNFRTKPFENV [SNU114]
doa10∆
  protein stability index: 3.35 ± 0.065
pdr5∆
  protein stability index: 3.35 ± 0.091
san1∆
  protein stability index: 3.37 ± 0.059
ubr1∆
  protein stability index: 3.31 ± 0.092

## SWASEGISKKTRIAGVV [RPS8A]
doa10∆
  protein stability index: 2.54 ± 0.039
pdr5∆
  protein stability index: 2.28 ± 0.034
san1∆
  protein stability index: 2.17 ± 0.045
ubr1∆
  protein stability index: 2.03 ± 0.034

## SYALSMEKDKLKNLLRS [SNU114]
doa10∆
  protein stability index: 2.97 ± 0.25
pdr5∆
  protein stability index: 2.24 ± 0.1
san1∆
  protein stability index: 2.31 ± 0.16
ubr1∆
  protein stability index: 2.68 ± 0.13

## SYANLPGTITHGMFSSA [FAS1]
doa10∆
  protein stability index: 2.64 ± 0.06
pdr5∆
  protein stability index: 2.15 ± 0.051
san1∆
  protein stability index: 2.16 ± 0.055
ubr1∆
  protein stability index: 2.51 ± 0.035

## SYDRTLLIADSRRPEPK [RPS16A]
doa10∆
  protein stability index: 2.25 ± 0.043
pdr5∆
  protein stability index: 2.48 ± 0.068
san1∆
  protein stability index: 2.03 ± 0.075
ubr1∆
  protein stability index: 2.29 ± 0.058

## SYELRNTTTYKSRPDRP [SNF5]
doa10∆
  protein stability index: 3.14 ± 0.06
pdr5∆
  protein stability index: 3.3 ± 0.071
san1∆
  protein stability index: 3.1 ± 0.087
ubr1∆
  protein stability index: 3.19 ± 0.067

## SYFKNSVIVKFHSEPDR [LIN1]
doa10∆
  protein stability index: 2.23 ± 0.062
pdr5∆
  protein stability index: 2.59 ± 0.075
san1∆
  protein stability index: 2.44 ± 0.067
ubr1∆
  protein stability index: 2.77 ± 0.047

## SYRLLPQINILQPIKGE [RPC40]
doa10∆
  protein stability index: 2.04 ± 0.094
pdr5∆
  protein stability index: 2.1 ± 0.087
san1∆
  protein stability index: 1.74 ± 0.067
ubr1∆
  protein stability index: 2.03 ± 0.064

## SYTFRSEKGLLSATQFT [FAS1]
doa10∆
  protein stability index: 2.67 ± 0.052
pdr5∆
  protein stability index: 2.65 ± 0.046
san1∆
  protein stability index: 2.84 ± 0.045
ubr1∆
  protein stability index: 2.78 ± 0.036
